The supplement of paper PMC10567573

B1: IQUB (parent)
chain: KIREKEEWIKLDYHRRHNPKTNED
B2: IQUB (parent)
chain: CRNCINLQNEAQKRESFLKYKCLL
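Note: lentivirally expressed fusions sorted by FACS into six bins by GFP to DsRed ratio, PSI derived from sequencing read proportions per bin multiplied by bin number.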

Variants of: B1
Assay: protein stability index of a GFP-peptide fusion (GPS, HEK-293T) (PSI 1-6); higher = more stable
Settings: c terminus: a fixed tail appended
Work on KIREKEEWIKLDYHRRHNPETNED [K20E] yielded a protein stability index of 5.2. Variant KIREKEEWIKLDYHRRHNPFTNED [K20F] has a protein stability index of 2.51. KIREKEEWIKLDYHRRHNPGTNED [K20G] showed a protein stability index of 4.84. KIREKEEWIKLDYHRRHNPHTNED [K20H] showed a protein stability index of 4.64. Variant KIREKEEWIKLDYHRRHNPITNED [K20I] has a protein stability index of 4.37. KIREKEEWIKLDYHRRHNPMTNED [K20M] showed a protein stability index of 4.53. For KIREKEEWIKLDYHRRHNPNTNED [K20N], the protein stability index was 4.21. With KIREKEEWIKLDYHRRHNPPTNED [K20P] the protein stability index was 5.07. Work on KIREKEEWIKLDYHRRHNPQTNED [K20Q] yielded a protein stability index of 4.39. For KIREKEEWIKLDYHRRHNPRTNED [K20R], the protein stability index was 4.66. With KIREKEEWIKLDYHRRHNPSTNED [K20S] the protein stability index was 4.81. Work on KIREKEEWIKLDYHRRHNPTTNED [K20T] yielded a protein stability index of 4.64. Work on KIREKEEWIKLDYHRRHNPVTNED [K20V] yielded a protein stability index of 4.72. With KIREKEEWIKLDYHRRHNPWTNED [K20W] the protein stability index was 3.08. With KIREKEEWIKLDYHRRHNPYTNED [K20Y] the protein stability index was 4.03. Work on KIREKEEWIKLDYHRRHNPKANED [T21A] yielded a protein stability index of 5.18. KIREKEEWIKLDYHRRHNPKCNED [T21C] showed a protein stability index of 4.57. Work on KIREKEEWIKLDYHRRHNPKDNED [T21D] yielded a protein stability index of 4.79. In the case of KIREKEEWIKLDYHRRHNPKENED [T21E], the protein stability index is reported as 4.6. KIREKEEWIKLDYHRRHNPKFNED [T21F] showed a protein stability index of 4.53. KIREKEEWIKLDYHRRHNPKGNED [T21G] gave a protein stability index of 5.12. Variant KIREKEEWIKLDYHRRHNPKHNED [T21H] has a protein stability index of 4.08. For KIREKEEWIKLDYHRRHNPKINED [T21I], the protein stability index was 4.33. Work on KIREKEEWIKLDYHRRHNPKKNED [T21K] yielded a protein stability index of 5.05. KIREKEEWIKLDYHRRHNPKLNED [T21L] gave a protein stability index of 4.13. Variant KIREKEEWIKLDYHRRHNPKMNED [T21M] has a protein stability index of 4.1. In the case of KIREKEEWIKLDYHRRHNPKNNED [T21N], the protein stability index is reported as 4.75. In the case of KIREKEEWIKLDYHRRHNPKPNED [T21P], the protein stability index is reported as 4.74. For KIREKEEWIKLDYHRRHNPKQNED [T21Q], the protein stability index was 4.75. With KIREKEEWIKLDYHRRHNPKRNED [T21R] the protein stability index was 4.82. Variant KIREKEEWIKLDYHRRHNPKSNED [T21S] has a protein stability index of 4.76. KIREKEEWIKLDYHRRHNPKVNED [T21V] showed a protein stability index of 4.46. In the case of KIREKEEWIKLDYHRRHNPKWNED [T21W], the protein stability index is reported as 3.77. KIREKEEWIKLDYHRRHNPKYNED [T21Y] gave a protein stability index of 4.52. KIREKEEWIKLDYHRRHNPKTAED [N22A] gave a protein stability index of 4.27. KIREKEEWIKLDYHRRHNPKTCED [N22C] showed a protein stability index of 4.85. In the case of KIREKEEWIKLDYHRRHNPKTDED [N22D], the protein stability index is reported as 4.7. KIREKEEWIKLDYHRRHNPKTFED [N22F] showed a protein stability index of 3.84. For KIREKEEWIKLDYHRRHNPKTGED [N22G], the protein stability index was 4.79. In the case of KIREKEEWIKLDYHRRHNPKTHED [N22H], the protein stability index is reported as 4.22. KIREKEEWIKLDYHRRHNPKTIED [N22I] showed a protein stability index of 4.01. With KIREKEEWIKLDYHRRHNPKTKED [N22K] the protein stability index was 4.29. With KIREKEEWIKLDYHRRHNPKTLED [N22L] the protein stability index was 4.2. In the case of KIREKEEWIKLDYHRRHNPKTMED [N22M], the protein stability index is reported as 4.29. Work on KIREKEEWIKLDYHRRHNPKTPED [N22P] yielded a protein stability index of 4.36. KIREKEEWIKLDYHRRHNPKTQED [N22Q] showed a protein stability index of 4.66. Variant KIREKEEWIKLDYHRRHNPKTRED [N22R] has a protein stability index of 4.03. KIREKEEWIKLDYHRRHNPKTSED [N22S] gave a protein stability index of 4.72. For KIREKEEWIKLDYHRRHNPKTTED [N22T], the protein stability index was 4.6. Work on KIREKEEWIKLDYHRRHNPKTVED [N22V] yielded a protein stability index of 4.15. For KIREKEEWIKLDYHRRHNPKTWED [N22W], the protein stability index was 2.8. For KIREKEEWIKLDYHRRHNPKTYED [N22Y], the protein stability index was 4.01. With KIREKEEWIKLDYHRRHNPKTNAD [E23A] the protein stability index was 4.52. In the case of KIREKEEWIKLDYHRRHNPKTNCD [E23C], the protein stability index is reported as 3.91. KIREKEEWIKLDYHRRHNPKTNDD [E23D] showed a protein stability index of 5.01. With KIREKEEWIKLDYHRRHNPKTNFD [E23F] the protein stability index was 4.45. KIREKEEWIKLDYHRRHNPKTNGD [E23G] showed a protein stability index of 4.44. With KIREKEEWIKLDYHRRHNPKTNHD [E23H] the protein stability index was 4.18. Work on KIREKEEWIKLDYHRRHNPKTNID [E23I] yielded a protein stability index of 4.13. KIREKEEWIKLDYHRRHNPKTNLD [E23L] showed a protein stability index of 4.17. KIREKEEWIKLDYHRRHNPKTNMD [E23M] gave a protein stability index of 4.17. With KIREKEEWIKLDYHRRHNPKTNND [E23N] the protein stability index was 4.24. Work on KIREKEEWIKLDYHRRHNPKTNPD [E23P] yielded a protein stability index of 4.28. Variant KIREKEEWIKLDYHRRHNPKTNQD [E23Q] has a protein stability index of 4.06. With KIREKEEWIKLDYHRRHNPKTNRD [E23R] the protein stability index was 3.72. Variant KIREKEEWIKLDYHRRHNPKTNSD [E23S] has a protein stability index of 4.25. KIREKEEWIKLDYHRRHNPKTNTD [E23T] showed a protein stability index of 4.54. In the case of KIREKEEWIKLDYHRRHNPKTNVD [E23V], the protein stability index is reported as 4.18. KIREKEEWIKLDYHRRHNPKTNWD [E23W] showed a protein stability index of 5.01. In the case of KIREKEEWIKLDYHRRHNPKTNYD [E23Y], the protein stability index is reported as 3.77. For KIREKEEWIKLDYHRRHNPKTNEA [D24A], the protein stability index was 3.91. Variant KIREKEEWIKLDYHRRHNPKTNEC [D24C] has a protein stability index of 3.29. Work on KIREKEEWIKLDYHRRHNPKTNEF [D24F] yielded a protein stability index of 3.27. With KIREKEEWIKLDYHRRHNPKTNEG [D24G] the protein stability index was 3.72. With KIREKEEWIKLDYHRRHNPKTNEH [D24H] the protein stability index was 4.04. For KIREKEEWIKLDYHRRHNPKTNEI [D24I], the protein stability index was 3.83. In the case of KIREKEEWIKLDYHRRHNPKTNEK [D24K], the protein stability index is reported as 4.42. KIREKEEWIKLDYHRRHNPKTNEL [D24L] gave a protein stability index of 3.53. Work on KIREKEEWIKLDYHRRHNPKTNEM [D24M] yielded a protein stability index of 3.88. Work on KIREKEEWIKLDYHRRHNPKTNEN [D24N] yielded a protein stability index of 4.32. KIREKEEWIKLDYHRRHNPKTNEP [D24P] showed a protein stability index of 3.66. Work on KIREKEEWIKLDYHRRHNPKTNEQ [D24Q] yielded a protein stability index of 4.13. In the case of KIREKEEWIKLDYHRRHNPKTNER [D24R], the protein stability index is reported as 3.89. With KIREKEEWIKLDYHRRHNPKTNES [D24S] the protein stability index was 4.27. For KIREKEEWIKLDYHRRHNPKTNET [D24T], the protein stability index was 4.16. Work on KIREKEEWIKLDYHRRHNPKTNEV [D24V] yielded a protein stability index of 3.21. KIREKEEWIKLDYHRRHNPKTNEW [D24W] gave a protein stability index of 3.02. For KIREKEEWIKLDYHRRHNPKTNEY [D24Y], the protein stability index was 3.65.

Variants of: B2
Assay: as above
Settings: c terminus: a fixed tail appended
Variant ARNCINLQNEAQKRESFLKYKCLL [C1A] has a protein stability index of 2.36. DRNCINLQNEAQKRESFLKYKCLL [C1D] gave a protein stability index of 2.28. For ERNCINLQNEAQKRESFLKYKCLL [C1E], the protein stability index was 1.87. For FRNCINLQNEAQKRESFLKYKCLL [C1F], the protein stability index was 1.5. GRNCINLQNEAQKRESFLKYKCLL [C1G] showed a protein stability index of 2.13. Variant HRNCINLQNEAQKRESFLKYKCLL [C1H] has a protein stability index of 2.23.
